Reference: patent publication US20210379110A1 (LENTIGEN TECHNOLOGY, published 2021)
Substitutions are numbered along the chain they refer to.

T1: TSLPR-Fc peptide (R&D systems) (UniProt Q9HC73 25-231)
T1 construct: Bought reagent (R&D systems); also called TSLPR-Fc reagent; not shown: Fc part of the bought reagent
T1 sequence (looked up): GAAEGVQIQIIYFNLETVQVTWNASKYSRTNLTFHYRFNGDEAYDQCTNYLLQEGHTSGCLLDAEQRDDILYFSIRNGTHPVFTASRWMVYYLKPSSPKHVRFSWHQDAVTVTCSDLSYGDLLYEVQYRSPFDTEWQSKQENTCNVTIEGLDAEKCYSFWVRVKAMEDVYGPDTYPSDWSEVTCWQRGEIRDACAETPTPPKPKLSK

T2: recombinant human CD19 (labeled) (human, UniProt P15391 20-291, limits assumed)
T2 construct: Fluorescently labeled antigen titrated on yeast; The sorting steps used CD19-Fc/Anti-Hu-Fc, so the labeled antigen may be the Fc fusion; also called labeled CD19; recombinant human CD19 protein
T2 sequence (looked up): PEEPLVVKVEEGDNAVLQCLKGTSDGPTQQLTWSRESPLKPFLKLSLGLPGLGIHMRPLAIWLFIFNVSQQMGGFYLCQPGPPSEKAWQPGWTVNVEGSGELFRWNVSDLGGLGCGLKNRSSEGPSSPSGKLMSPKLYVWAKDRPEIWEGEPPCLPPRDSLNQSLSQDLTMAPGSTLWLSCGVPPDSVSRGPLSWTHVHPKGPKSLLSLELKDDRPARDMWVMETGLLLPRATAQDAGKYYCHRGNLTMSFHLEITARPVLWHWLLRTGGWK

B1: D0102 (EF-1a-CD19 (19217_1)-TSLPR CD8 BBz) (other)
chain: EVQLVQSGAEVKKPGASVKVSCKASGYTFTSYYMHWVRQAPGQGLEWMGLINPSGGSTSYAQKFQGRVTMTRDTSTSTVYMELSSLRSEDTAVYYCARSDRGITATDAFDIWGQGTMVTVSSGGGGSGGGGSGGGGSQSVLTQPPSVSVAPGRMAKITCGGSDIGNKNVHWYQQKPGQAPVLVVYDDYDRPSGIPERFSGSNSGDAATLTISTVEVGDEADYFCQVWDGSGDPYWMFGGGTQLTVLGGGGGSGGGGSGGGGSGGGGSGGGGSQVTLKESGPGILKPSQTLSLTCSFSGFSLSTSGMGVGWIRQPSGKGLEWLAHIWWDDDKYYNPSLKSQLTISKDTSRNQVFLKITSVDTADTATYYCSRRPRGTMDAMDYWGQGTSVTVSSGGGGSGGGGSGGGGSDIVMTQAASSLSASLGDRVTISCRASQDISKYLNWYQQKPDGTVKLLIYYTSRLHSGVPSRFSGSGSGTDYSLTIRNLEQEDIATYFCQQVYTLPWTFGGGTKLEIKAAATTTPAPRPPTPAPTIASQPLSLRPEACRPAAGGAVHTRGLDFACDIYIWAPLAGTCGVLLLSLVITLYCKRGRKKLLYIFKQPFMRPVQTTQEEDGCSCRFPEEEEGGCELRVKFSRSADAPAYQQGQNQLYNELNLGRREEYDVLDKRRGRDPEMGGKPRRKNPQEGLYNELQKDKMAEAYSEIGMKGERRRGKGHDGLYQGLSTATKDTYDALHMQALPPR
notes: also called CAR 19-TSLPR BBz; tandem D0102 CD19×TSLPR CAR
B2: D0101 (EF-1a-TSLPR-CD19 (19217_1) CD8 BBz) (other)
chain: QVTLKESGPGILKPSQTLSLTCSFSGFSLSTSGMGVGWIRQPSGKGLEWLAHIWWDDDKYYNPSLKSQLTISKDTSRNQVFLKITSVDTADTATYYCSRRPRGTMDAMDYWGQGTSVTVSSGGGGSGGGGSGGGGSDIVMTQAASSLSASLGDRVTISCRASQDISKYLNWYQQKPDGTVKLLIYYTSRLHSGVPSRFSGSGSGTDYSLTIRNLEQEDIATYFCQQVYTLPWTFGGGTKLEIKGGGGSGGGGSGGGGSGGGGSGGGGSEVQLVQSGAEVKKPGASVKVSCKASGYTFTSYYMHWVRQAPGQGLEWMGLINPSGGSTSYAQKFQGRVTMTRDTSTSTVYMELSSLRSEDTAVYYCARSDRGITATDAFDIWGQGTMVTVSSGGGGSGGGGSGGGGSQSVLTQPPSVSVAPGRMAKITCGGSDIGNKNVHWYQQKPGQAPVLVVYDDYDRPSGIPERFSGSNSGDAATLTISTVEVGDEADYFCQVWDGSGDPYWMFGGGTQLTVLGAAATTTPAPRPPTPAPTIASQPLSLRPEACRPAAGGAVHTRGLDFACDIYIWAPLAGTCGVLLLSLVITLYCKRGRKKLLYIFKQPFMRPVQTTQEEDGCSCRFPEEEEGGCELRVKFSRSADAPAYQQGQNQLYNELNLGRREEYDVLDKRRGRDPEMGGKPRRKNPQEGLYNELQKDKMAEAYSEIGMKGERRRGKGHDGLYQGLSTATKDTYDALHMQALPPR
notes: also called CAR TSLPR-19 BBz; tandem D0101 TSLPR×CD19 CAR
B3: human anti-CD19 ScFv binder M19217-1 (scFv, V domains shown)
VH: EVQLVQSGAEVKKPGASVKVSCKASGYTFTSYYMHWVRQAPGQGLEWMGLINPSGGSTSYAQKFQGRVTMTRDTSTSTVYMELSSLRSEDTAVYYCARSDRGITATDAFDIWGQGTMVTVSS
VL: QSVLTQPPSVSVAPGRMAKITCGGSDIGNKNVHWYQQKPGQAPVLVVYDDYDRPSGIPERFSGSNSGDAATLTISTVEVGDEADYFCQVWDGSGDPYWMFGGGTQLTVLG
notes: also called scFv of LTG2065
B4: human anti-CD19 ScFv binder M19217 (founder clone) (scFv)
chain: EVQLVQSGAEVKKPGASVKVSCKASGYTFTSYYMHWVRQAPGQGLEWMGIINPSGGSTSYAQKFQGRVTMTRDTSTSTVYMELSSLRSEDTAVYYCARSDRGITATDAFDIWGQGTMVTVSSGGGGSGGGGSGGGGSQSVLTQPPSVSVAPGQTAKITCGGSDIGNKNVHWYQQKPGQAPVLVVYDDYDRPSGIPERFSGSNSGDAATLTISTVEVGDEADYFCQVWDSSGDPYWVFGGGTQLTVLG
B5: human anti-CD19 ScFv binder M19217-29 (scFv)
chain: B4 chain with I50M, V169A, P195S, S229G, Y234F
B6: human anti-CD19 ScFv binder M19217-23 (scFv)
chain: B4 chain with S31G, M48I, I50L, A61E, T69A, N166D, S229G, S230I
B7: human anti-CD19 ScFv binder M19217-7 (scFv)
chain: B4 chain with K12N, I50M, A105S, V149L, D189N, A206S, S229G
B8: human anti-CD19 ScFv binder M19217-40 (scFv)
chain: B4 chain with K13R, E46V, I50L, I157T, F223V, S229G
B9: human anti-CD19 ScFv binder M19217-2 (scFv)
chain: B4 chain with L45F, I50L, G56S, S85N, S148P, T158I, S229G
B10: human anti-CD19 ScFv binder M19217-38 (scFv)
chain: B4 chain with K13R, Q43R, I50L, K63E, T74M, T104S, T154M, D189N, S229G, V245D

Target: T1, TSLPR-Fc peptide (R&D systems)
Assay: flow cytometry, CAR T cells stained with TSLPR-Fc then anti-Fc AF647
Description: Flow cytometric analysis was performed to detect the CAR molecule surface expression. Half million of harvested primary T cells were washed and stained with cold AutoMACS buffer supplemented with 0.5% bovine serum albumin (Miltenyi Biotec, Bergisch Gladbach, Germany), and resuspended in 200 ul Running Buffer before acquired by MACSQuant®10 Analyzer (Miltenyi Biotec Bergisch Gladbach, Germany). For CAR surface expression, TSLPR Fc, CD19Fc and CD22Fc peptide (R&D systems, Minneapolis, Minn.) were used followed anti Fc-AF647 (Jackson ImmunoResearch, West Grove, Pa.). T cell subtypes was further identified with anti-CD4 antibody conjugated to VioBlue fluorophore (Miltenyi Biotec Bergisch Gladbach, Germany). Dead cells in all studies were excluded by 7AAD staining (BD Biosciences, San Jose, Calif.). Flow data were analyzed with MACSQuantify software.
Specific detection of each scFv domain within the CAR structure was facilitated by CAR T cell staining with TSLPR-Fc peptide, or CD19-Fc peptide, followed by a secondary staining with anti-Fc AF647-labeled reagent, and fluorescence was detected in the APC channel. In CAR construct D0101, in which CD19 scFv was membrane-proximal and the TSLPR scFv was membrane-distal, the TSLPR scFv was detected at 44% of the transduced cells, and CD19 scFv was detected at 31%. In CAR construct D0102 with the reverse binder orientation (i.e. the TSLPR scFv membrane-proximal, and CD19 scFv membrane-distal), the detection levels were 85% and 75% for scFv TSLPR and CD19, respectively (FIG. 2).

percent of transduced T cells stained by antigen-Fc [%] | Binder
85 | B1
44 | B2

Target: T2, recombinant human CD19 (labeled)
Assay: flow cytometry of yeast-displayed scFv with decreasing amounts of labeled CD19
Description: To increase the affinity of m19217, a yeast-display m19217 mutant scFv library was created by using error-prone PCR to create random point mutations in scFv gene sequences. After electroporation, the resulting mutant library was then grown overnight at 30° C. for 16 hours in SDCAA medium and then switched into SGCAA medium at 30° C. for another 16 hours. The mutant library was then sorted through MACS (immunomagentic column, Miltenyi Biotec) with CD19-Fc as the capture antigen to downsize the library and to increase the population of mutants that could bind to CD19-Fc. The strongest binders were then selected by double staining the pools with Anti-c-Myc-Alexa 488 and CD19-Fc/Anti-Hu-Fc and selecting for the binders that had the highest binding affinities as well as c-Myc expression levels. This process was then repeated two more times, until flow cytometry of yeast particles with fluorescently tagged antigen yielded average binding affinities of the mutant pools that were increased over the starting construct. Binding affinities were estimated by flow cytometry of yeast pools using decreasing amounts of labeled CD19.

EC50 [mg/L] | Binder
< 0.01 | B3
0.5 | B4
< 0.01 | B5
< 0.01 | B6
< 0.01 | B7
< 0.01 | B8
< 0.01 | B9
< 0.01 | B10
